Biological target: T1, rSAMD9 158-389 (tRNase domain) (Oryctolagus cuniculus (European rabbit; …, UniProt G1U2M9 158-389)
T1 sequence: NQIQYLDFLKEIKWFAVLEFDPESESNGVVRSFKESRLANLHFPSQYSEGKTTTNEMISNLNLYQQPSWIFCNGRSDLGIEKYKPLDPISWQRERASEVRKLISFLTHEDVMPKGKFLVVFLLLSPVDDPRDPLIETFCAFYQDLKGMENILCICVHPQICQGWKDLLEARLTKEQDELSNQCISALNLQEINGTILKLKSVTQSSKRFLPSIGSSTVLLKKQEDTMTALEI
Test: EMSA; stable complex predominant at 2:1 protein:dsDNA; no DNA density seen in the crystal; EMSA on 0.8% native agarose gel, EtBr then Coomassie stain; buffer, salt, pH and temperature not given (as in earlier paper)
Settings: protein: recombinant; tags: 6xHis-SUMO removed by Ulp1; chain copies: 2; blunt

B1: 26-nt dsDNA (dsDNA)
DNA 1: TATTCAAATTAATGATTTATTCAATT
DNA 2: AATTGAATAAATCATTAATTTGAATA
Does B1 bind?
Result: binds

Reference: publication PMC12331169, “Structural and functional studies of rabbit SAMD9 reveal a distinct tRNase module that underlies the antiviral activity”
